According to FireProtDB (doi:10.1074/jbc.273.32.19982):

B1: DNA-binding protein HU, P0A3H0 (parent)
chain: MNKTELINAVAETSGLSKKDATKAVDAVFDSITEALRKGDKVQLIGFGNFEVRERAARKGRNPQTGEEMEIPASKVPAFKPGKALKDAVK
B2: DNA-binding protein HU 1, P08821 (parent)
chain: MNKTELINAVAEASELSKKDATKAVDSVFDTILDALKNGDKIQLIGFGNFEVRERSARKGRNPQTGEEIEIPASKVPAFKPGKALKDAVAGK

How the values were obtained:
[1] = variants of: B1; conditions: Geobacillus stearothermophilus, pH 7, Thermal, structure 1HUE, whole UniProt chain shown; for ddG of mutation (higher = less stable): 63.9 °C
[2] = variants of: B2; conditions: Bacillus subtilis (strain 168), pH 7, Thermal, CD, Sodium phosphate 5 mM, NaCl 0.2 M, reversible: yes, whole UniProt chain shown; for ddG of mutation (higher = less stable): 48.6 °C
[3] = CD, Sodium phosphate 5 mM, NaCl 0.2 M, reversible: yes

Q: Which “ddG of mutation (higher = less stable)” value [1, 3] does the source give for MNKTELINAVAETSGLSKKDATKAVDAVFDSITEALRKGDKIQLIGFGNFEVRERAARKGRNPQTGEEMEIPASKVPAFKPGKALKDAVK [V42I] here?
A: The value was 3.43 kJ/mol.

Q: What about the Tm [1, 3] of the same variant?
A: Its Tm is 60.1 °C.

Q: What about the “change of melting temperature, mutant - wild type (higher = more stable)” value (shortened to “change of melting temperature, mutant”) [1, 3] of the same variant?
A: Its value is -3.8 °C.

Q: What about the “unfolding enthalpy (van 't Hoff)” value [1, 3] of the same variant?
A: The value was 229 kJ/mol.

Q: What about the Tm ([1]; DSC, phosphate 0.05 M) of the same variant?
A: Its Tm is 59.6 °C.

Q: What about the “change of melting temperature, mutant” value ([1]; DSC, phosphate 0.05 M) of the same variant?
A: The value was -6.2 °C.

Q: For MNKTELINAVAETSGLSKKDATKAVDAVFDSITEALRKGDKVQLIGFGNFEVRERAARKGRNPQTGEEIEIPASKVPAFKPGKALKDAVK [M69I], which “ddG of mutation (higher = less stable)” value [1, 3] is on record?
A: Its value is 0 kJ/mol.

Q: And the Tm [1, 3]?
A: Its Tm is 63.9 °C.

Q: What about the “change of melting temperature, mutant” value [1, 3] of the same variant?
A: Its value is 0 °C.

Q: What about the “unfolding enthalpy (van 't Hoff)” value [1, 3] of the same variant?
A: The value was 331 kJ/mol.

Q: What does the source list for MNKTELINAVAETSGLSKKDATKAVDAVFDTITEALRKGDKVQLIGFGNFEVRERAARKGRNPQTGEEMEIPASKVPAFKPGKALKDAVK [S31T]?
A: ddG of mutation (higher = less stable) [1, 3]: -1.72 kJ/mol; Tm [1, 3]: 65.8 °C; change of melting temperature, mutant - wild type (higher = more stable) [1, 3]: 1.9 °C; unfolding enthalpy (van 't Hoff) [1, 3]: 339 kJ/mol

Q: Which results are given for MNKTELINAVAETSGLSKKDATKAVDAVFDSITEALRKGDKVQLIGFGNFEVRERSARKGRNPQTGEEMEIPASKVPAFKPGKALKDAVK [A56S]?
A: ddG of mutation (higher = less stable) [1, 3]: 0.544 kJ/mol; Tm [1, 3]: 63.3 °C; change of melting temperature, mutant - wild type (higher = more stable) [1, 3]: -0.6 °C; unfolding enthalpy (van 't Hoff) [1, 3]: 347 kJ/mol

Q: For MNKTELINAVAETSGLSKKDATKAVDSVFDSITEALRKGDKVQLIGFGNFEVRERAARKGRNPQTGEEMEIPASKVPAFKPGKALKDAVK [A27S], which Tm [1, 3] is on record?
A: Its Tm is 58.4 °C.

Q: And the “change of melting temperature, mutant” value [1, 3]?
A: Its value is -5.5 °C.

Q: And the “unfolding enthalpy (van 't Hoff)” value [1, 3]?
A: Its value is 320 kJ/mol.

Q: With MNKTELINAVAETSELSKKDATKAVDAVFDSITEALRKGDKVQLIGFGNFEVRERAARKGRNPQTGEEMEIPASKVPAFKPGKALKDAVK [G15E] as the variant, how does the Tm [1, 3] read?
A: The Tm was 54 °C.

Q: And the “change of melting temperature, mutant” value [1, 3]?
A: Its value is -9.9 °C.

Q: What about the Tm ([1]; DSC, phosphate 0.05 M) of the same variant?
A: Its Tm is 55.7 °C.

Q: And the “change of melting temperature, mutant” value ([1]; DSC, phosphate 0.05 M)?
A: Its value is -10.1 °C.

Q: Which results are given for MNKTELINAVAETSGLSKKDATKAVDAVFDSITEALRNGDKVQLIGFGNFEVRERAARKGRNPQTGEEMEIPASKVPAFKPGKALKDAVK [K38N]?
A: Tm [1, 3]: 61.5 °C; change of melting temperature, mutant - wild type (higher = more stable) [1, 3]: -2.4 °C; Tm ([1]; DSC, phosphate 0.05 M): 61.7 °C; change of melting temperature, mutant - wild type (higher = more stable) ([1]; DSC, phosphate 0.05 M): -4.1 °C

Q: What does the source list for MNKTELINAVAETSGLSKKDATKAVDAVFDSITDALRKGDKVQLIGFGNFEVRERAARKGRNPQTGEEMEIPASKVPAFKPGKALKDAVK [E34D]?
A: Tm [1, 3]: 61.6 °C; change of melting temperature, mutant - wild type (higher = more stable) [1, 3]: -2.3 °C; Tm ([1]; DSC, phosphate 0.05 M): 63.5 °C; change of melting temperature, mutant - wild type (higher = more stable) ([1]; DSC, phosphate 0.05 M): -2.3 °C

Q: Which results are given for MNKTELINAVAEASELSKKDATKAVDSVFDTILEALKKGDKIQLIGFGNFEVRERSARKGRNPQTGEEIEIPASKVPAFKPGKALKDAVAGK [D34E N38K]?
A: ddG of mutation (higher = less stable) [2]: -1.88 kJ/mol; Tm [2]: 52.1 °C; change of melting temperature, mutant - wild type (higher = more stable) [2]: 3.5 °C

Q: For MNKTELINAVAEASELSKKDATKAVDAVFDTILDALKNGDKIQLIGFGNFEVRERSARKGRNPQTGEEIEIPASKVPAFKPGKALKDAVAGK [S27A], which “ddG of mutation (higher = less stable)” value [2] is on record?
A: The value was -3.05 kJ/mol.

Q: And the Tm [2]?
A: The Tm was 54.2 °C.

Q: And the “change of melting temperature, mutant” value [2]?
A: The value was 5.6 °C.

Q: For MNKTELINAVAEASGLSKKDATKAVDSVFDTILDALKNGDKIQLIGFGNFEVRERSARKGRNPQTGEEIEIPASKVPAFKPGKALKDAVAGK [E15G], which “ddG of mutation (higher = less stable)” value [2] is on record?
A: The value was -6.49 kJ/mol.

Q: What about the Tm [2] of the same variant?
A: Its Tm is 60.4 °C.

Q: And the “change of melting temperature, mutant” value [2]?
A: Its value is 11.8 °C.

Q: With MNKTELINAVAEASGLSKKDATKAVDAVFDTILEALKKGDKVQLIGFGNFEVRERSARKGRNPQTGEEIEIPASKVPAFKPGKALKDAVAGK [E15G S27A D34E N38K I42V] as the variant, how does the “ddG of mutation (higher = less stable)” value [2] read?
A: Its value is -12.5 kJ/mol.

Q: What about the Tm [2] of the same variant?
A: The Tm was 71.3 °C.

Q: And the “change of melting temperature, mutant” value [2]?
A: The value was 22.7 °C.

Q: Which Tm [2] does the source give for MNKTELINAVAEASELSKKDATKAVDSVFDTILDALKNGDKVQLIGFGNFEVRERSARKGRNPQTGEEIEIPASKVPAFKPGKALKDAVAGK [I42V] here?
A: The Tm was 52.6 °C.

Q: What about the “change of melting temperature, mutant” value [2] of the same variant?
A: The value was 4 °C.
